Results from patent publication US20160272683A1 (Novo Nordisk, published 2016).
Numbered stars: 1 amine (or outer) side, 2 acyl side, 3 side chain; on linkers, the order of the positions; unused ones are H or OH. Side chains are listed from the residue outwards. Ends that are not written are not given here. * marks the point of attachment. C20 diacid = O=C(O)CCCCCCCCCCCCCCCCCCC(=O)*; C18 diacid = O=C(O)CCCCCCCCCCCCCCCCC(=O)*; γGlu = O=C(O)[C@H](CCC(=O)[*:2])N[*:1]

T1: human amylin 3(a) receptor (human calcitonin receptor co-expressed with RAMP-3) on BHK570/CRE-luc cells (human, UniProt P30988 25-474; O60896 24-148)
T1 sequence (looked up) 1: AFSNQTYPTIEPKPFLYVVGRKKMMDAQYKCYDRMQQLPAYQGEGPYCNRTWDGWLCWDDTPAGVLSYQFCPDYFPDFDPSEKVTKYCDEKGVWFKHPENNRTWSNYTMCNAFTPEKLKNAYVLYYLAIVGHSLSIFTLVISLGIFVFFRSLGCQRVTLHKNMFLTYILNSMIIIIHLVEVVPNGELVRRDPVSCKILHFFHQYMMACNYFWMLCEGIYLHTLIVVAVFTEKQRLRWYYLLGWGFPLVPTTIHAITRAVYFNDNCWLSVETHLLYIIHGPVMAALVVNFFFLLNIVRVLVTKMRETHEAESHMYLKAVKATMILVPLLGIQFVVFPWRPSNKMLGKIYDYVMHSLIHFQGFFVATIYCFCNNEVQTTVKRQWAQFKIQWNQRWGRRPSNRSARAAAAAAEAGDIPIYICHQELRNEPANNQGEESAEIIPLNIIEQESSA
T1 sequence (looked up) 2: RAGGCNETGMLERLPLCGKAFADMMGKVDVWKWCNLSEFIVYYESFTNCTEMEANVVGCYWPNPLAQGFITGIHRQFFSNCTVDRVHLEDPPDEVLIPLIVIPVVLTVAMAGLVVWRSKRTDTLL

T2: human calcitonin receptor on BHK570/CRE-luc cells (human, UniProt P30988 25-474)
T2 sequence (looked up): T1 sequence (looked up) 1

B1: [N-terminal(C18 diacid-gGlu), des1, 23Y, 30S, 31G]mimylin (peptide)
peptide: {C18 diacid-γGlu}-ASELSTAALGRLSAELHELATYPRTETGSGSP-NH2
SMILES: CC(C)C[C@H](NC(=O)[C@H](C)NC(=O)[C@H](C)NC(=O)[C@@H](NC(=O)[C@H](CO)NC(=O)[C@H](CC(C)C)NC(=O)[C@H](CCC(=O)O)NC(=O)[C@H](CO)NC(=O)[C@H](C)NC(=O)CC[C@H](NC(=O)CCCCCCCCCCCCCCCCC(=O)O)C(=O)O)[C@@H](C)O)C(=O)NCC(=O)N[C@@H](CCCNC(=N)N)C(=O)N[C@@H](CC(C)C)C(=O)N[C@@H](CO)C(=O)N[C@@H](C)C(=O)N[C@@H](CCC(=O)O)C(=O)N[C@@H](CC(C)C)C(=O)N[C@@H](Cc1c[nH]cn1)C(=O)N[C@@H](CCC(=O)O)C(=O)N[C@@H](CC(C)C)C(=O)N[C@@H](C)C(=O)N[C@H](C(=O)N[C@@H](Cc1ccc(O)cc1)C(=O)N1CCC[C@H]1C(=O)N[C@@H](CCCNC(=N)N)C(=O)N[C@H](C(=O)N[C@@H](CCC(=O)O)C(=O)N[C@H](C(=O)NCC(=O)N[C@@H](CO)C(=O)NCC(=O)N[C@@H](CO)C(=O)N1CCC[C@H]1C(N)=O)[C@@H](C)O)[C@@H](C)O)[C@@H](C)O
B2: [N-terminal(C20 diacid-gGlu), 1A, 23Y, 30S, 31G]mimylin (peptide)
peptide: {C20 diacid-γGlu}-AASELSTAALGRLSAELHELATYPRTETGSGSP-NH2
SMILES: CC(C)C[C@H](NC(=O)[C@H](C)NC(=O)[C@H](C)NC(=O)[C@@H](NC(=O)[C@H](CO)NC(=O)[C@H](CC(C)C)NC(=O)[C@H](CCC(=O)O)NC(=O)[C@H](CO)NC(=O)[C@H](C)NC(=O)[C@H](C)NC(=O)CC[C@H](NC(=O)CCCCCCCCCCCCCCCCCCC(=O)O)C(=O)O)[C@@H](C)O)C(=O)NCC(=O)N[C@@H](CCCNC(=N)N)C(=O)N[C@@H](CC(C)C)C(=O)N[C@@H](CO)C(=O)N[C@@H](C)C(=O)N[C@@H](CCC(=O)O)C(=O)N[C@@H](CC(C)C)C(=O)N[C@@H](Cc1c[nH]cn1)C(=O)N[C@@H](CCC(=O)O)C(=O)N[C@@H](CC(C)C)C(=O)N[C@@H](C)C(=O)N[C@H](C(=O)N[C@@H](Cc1ccc(O)cc1)C(=O)N1CCC[C@H]1C(=O)N[C@@H](CCCNC(=N)N)C(=O)N[C@H](C(=O)N[C@@H](CCC(=O)O)C(=O)N[C@H](C(=O)NCC(=O)N[C@@H](CO)C(=O)NCC(=O)N[C@@H](CO)C(=O)N1CCC[C@H]1C(N)=O)[C@@H](C)O)[C@@H](C)O)[C@@H](C)O
B3: [N-terminal(C20 diacid-gGlu), des1, 23Y, 30S, 31G]mimylin (peptide)
peptide: {C20 diacid-γGlu}-ASELSTAALGRLSAELHELATYPRTETGSGSP-NH2
SMILES: CC(C)C[C@H](NC(=O)[C@H](C)NC(=O)[C@H](C)NC(=O)[C@@H](NC(=O)[C@H](CO)NC(=O)[C@H](CC(C)C)NC(=O)[C@H](CCC(=O)O)NC(=O)[C@H](CO)NC(=O)[C@H](C)NC(=O)CC[C@H](NC(=O)CCCCCCCCCCCCCCCCCCC(=O)O)C(=O)O)[C@@H](C)O)C(=O)NCC(=O)N[C@@H](CCCNC(=N)N)C(=O)N[C@@H](CC(C)C)C(=O)N[C@@H](CO)C(=O)N[C@@H](C)C(=O)N[C@@H](CCC(=O)O)C(=O)N[C@@H](CC(C)C)C(=O)N[C@@H](Cc1c[nH]cn1)C(=O)N[C@@H](CCC(=O)O)C(=O)N[C@@H](CC(C)C)C(=O)N[C@@H](C)C(=O)N[C@H](C(=O)N[C@@H](Cc1ccc(O)cc1)C(=O)N1CCC[C@H]1C(=O)N[C@@H](CCCNC(=N)N)C(=O)N[C@H](C(=O)N[C@@H](CCC(=O)O)C(=O)N[C@H](C(=O)NCC(=O)N[C@@H](CO)C(=O)NCC(=O)N[C@@H](CO)C(=O)N1CCC[C@H]1C(N)=O)[C@@H](C)O)[C@@H](C)O)[C@@H](C)O
B4: [des1, 19K(C20 diacid-gGlu), 30S, 31G]mimylin (peptide)
peptide: ASELSTAALGRLSAELHK([γGlu-C20 diacid])LATLPRTETGSGSP-NH2
modifications: N-terminus assumed
SMILES: CC(C)C[C@H](NC(=O)[C@H](C)NC(=O)[C@H](C)NC(=O)[C@@H](NC(=O)[C@H](CO)NC(=O)[C@H](CC(C)C)NC(=O)[C@H](CCC(=O)O)NC(=O)[C@H](CO)NC(=O)[C@H](C)N)[C@@H](C)O)C(=O)NCC(=O)N[C@@H](CCCNC(=N)N)C(=O)N[C@@H](CC(C)C)C(=O)N[C@@H](CO)C(=O)N[C@@H](C)C(=O)N[C@@H](CCC(=O)O)C(=O)N[C@@H](CC(C)C)C(=O)N[C@@H](Cc1c[nH]cn1)C(=O)N[C@@H](CCCCNC(=O)CC[C@H](NC(=O)CCCCCCCCCCCCCCCCCCC(=O)O)C(=O)O)C(=O)N[C@@H](CC(C)C)C(=O)N[C@@H](C)C(=O)N[C@H](C(=O)N[C@@H](CC(C)C)C(=O)N1CCC[C@H]1C(=O)N[C@@H](CCCNC(=N)N)C(=O)N[C@H](C(=O)N[C@@H](CCC(=O)O)C(=O)N[C@H](C(=O)NCC(=O)N[C@@H](CO)C(=O)NCC(=O)N[C@@H](CO)C(=O)N1CCC[C@H]1C(N)=O)[C@@H](C)O)[C@@H](C)O)[C@@H](C)O
B5: [N-terminal(C20 diacid-gGlu), des1, 30S, 31G, 33Y]mimylin (peptide)
peptide: {C20 diacid-γGlu}-ASELSTAALGRLSAELHELATLPRTETGSGSY-NH2
SMILES: CC(C)C[C@H](NC(=O)[C@H](C)NC(=O)[C@H](C)NC(=O)[C@@H](NC(=O)[C@H](CO)NC(=O)[C@H](CC(C)C)NC(=O)[C@H](CCC(=O)O)NC(=O)[C@H](CO)NC(=O)[C@H](C)NC(=O)CC[C@H](NC(=O)CCCCCCCCCCCCCCCCCCC(=O)O)C(=O)O)[C@@H](C)O)C(=O)NCC(=O)N[C@@H](CCCNC(=N)N)C(=O)N[C@@H](CC(C)C)C(=O)N[C@@H](CO)C(=O)N[C@@H](C)C(=O)N[C@@H](CCC(=O)O)C(=O)N[C@@H](CC(C)C)C(=O)N[C@@H](Cc1c[nH]cn1)C(=O)N[C@@H](CCC(=O)O)C(=O)N[C@@H](CC(C)C)C(=O)N[C@@H](C)C(=O)N[C@H](C(=O)N[C@@H](CC(C)C)C(=O)N1CCC[C@H]1C(=O)N[C@@H](CCCNC(=N)N)C(=O)N[C@H](C(=O)N[C@@H](CCC(=O)O)C(=O)N[C@H](C(=O)NCC(=O)N[C@@H](CO)C(=O)NCC(=O)N[C@@H](CO)C(=O)N[C@@H](Cc1ccc(O)cc1)C(N)=O)[C@@H](C)O)[C@@H](C)O)[C@@H](C)O
B6: [N-terminal(C20 diacid-gGlu), des1, 30S, 31G, 33H]mimylin (peptide)
peptide: {C20 diacid-γGlu}-ASELSTAALGRLSAELHELATLPRTETGSGSH-NH2
SMILES: CC(C)C[C@H](NC(=O)[C@H](C)NC(=O)[C@H](C)NC(=O)[C@@H](NC(=O)[C@H](CO)NC(=O)[C@H](CC(C)C)NC(=O)[C@H](CCC(=O)O)NC(=O)[C@H](CO)NC(=O)[C@H](C)NC(=O)CC[C@H](NC(=O)CCCCCCCCCCCCCCCCCCC(=O)O)C(=O)O)[C@@H](C)O)C(=O)NCC(=O)N[C@@H](CCCNC(=N)N)C(=O)N[C@@H](CC(C)C)C(=O)N[C@@H](CO)C(=O)N[C@@H](C)C(=O)N[C@@H](CCC(=O)O)C(=O)N[C@@H](CC(C)C)C(=O)N[C@@H](Cc1c[nH]cn1)C(=O)N[C@@H](CCC(=O)O)C(=O)N[C@@H](CC(C)C)C(=O)N[C@@H](C)C(=O)N[C@H](C(=O)N[C@@H](CC(C)C)C(=O)N1CCC[C@H]1C(=O)N[C@@H](CCCNC(=N)N)C(=O)N[C@H](C(=O)N[C@@H](CCC(=O)O)C(=O)N[C@H](C(=O)NCC(=O)N[C@@H](CO)C(=O)NCC(=O)N[C@@H](CO)C(=O)N[C@@H](Cc1c[nH]cn1)C(N)=O)[C@@H](C)O)[C@@H](C)O)[C@@H](C)O
B7: [N-terminal(C20 diacid-gGlu), des1, 30S, 31G, 33F]mimylin (peptide)
peptide: {C20 diacid-γGlu}-ASELSTAALGRLSAELHELATLPRTETGSGSF-NH2
SMILES: CC(C)C[C@H](NC(=O)[C@H](C)NC(=O)[C@H](C)NC(=O)[C@@H](NC(=O)[C@H](CO)NC(=O)[C@H](CC(C)C)NC(=O)[C@H](CCC(=O)O)NC(=O)[C@H](CO)NC(=O)[C@H](C)NC(=O)CC[C@H](NC(=O)CCCCCCCCCCCCCCCCCCC(=O)O)C(=O)O)[C@@H](C)O)C(=O)NCC(=O)N[C@@H](CCCNC(=N)N)C(=O)N[C@@H](CC(C)C)C(=O)N[C@@H](CO)C(=O)N[C@@H](C)C(=O)N[C@@H](CCC(=O)O)C(=O)N[C@@H](CC(C)C)C(=O)N[C@@H](Cc1c[nH]cn1)C(=O)N[C@@H](CCC(=O)O)C(=O)N[C@@H](CC(C)C)C(=O)N[C@@H](C)C(=O)N[C@H](C(=O)N[C@@H](CC(C)C)C(=O)N1CCC[C@H]1C(=O)N[C@@H](CCCNC(=N)N)C(=O)N[C@H](C(=O)N[C@@H](CCC(=O)O)C(=O)N[C@H](C(=O)NCC(=O)N[C@@H](CO)C(=O)NCC(=O)N[C@@H](CO)C(=O)N[C@@H](Cc1ccccc1)C(N)=O)[C@@H](C)O)[C@@H](C)O)[C@@H](C)O

Target: T1, human amylin 3(a) receptor (human …)
Test: cell-based or functional assay

Binder	hAmylin-R funct. EC50 (pM), tested with HSA [pM]
B1	24
B2	82
B3	67
B4	49
B5	62
B6	125
B7	94

Target: T2, human calcitonin receptor on …
Test: cell-based or functional assay

Binder	hCTR funct. EC50 (pM), tested with HSA [pM]
B1	15
B2	51
B3	24
B4	28
B5	49
B6	72
B7	73
